# Results published in the nanobody polyreactivity screen of Harvey et al. (2022).
# Experiment: yeast display, Sf9 membrane polyspecificity reagent, FACS + sequencing; frameworks hold sequencing errors
# How it was run: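 Galactose induction of a Saccharomyces cerevisiae BJ5465 synthetic nanobody display library ran 36–48 hours. The cells were then stained for 1 hour at 4 °C with 10% biotinylated, detergent-solubilized Sf9 membrane reagent, pulled down on streptavidin microbeads and FACS-sorted into low and high (top ~1%) gates on expression and reagent-binding fluorescence. Labels for polyreactivity follow the gate of origin.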
row,Sequence,polyreactivity (PSR sort gate)
1,QVQLVESGGGLVQAGGSLRLSCAASGFIIARNAMGWYRQAPGKERELVAAISASGGRTYYADSVKGRFTISRDNAKNTVYLQMNSLKPEDTAVYYCAARRDGRSGSYNYWGQGTQVTVSS,high polyreactivity
2,QVQLVESGGGLVQAGGSLRLSCAASGFIIDVYAMGWYRHAPGKERELVAAISRSGGSTYYADSVKGRFTISRDNAKNSVYLQMNSLKPEDTAVYYCNAPGVTRAYLVGYDYWGQGSQVTVSS,low polyreactivity
3,QVQLVESGGGLVQAGGSLRLSCAASGFIIGSNGMGWYRQAPGKERELVAAISKNGGTTYYADSVKGRVTISRDNANNTVYLLMNSLKPADTAVYYCAAYKAVPNYYYWGQGTQVTVSS,high polyreactivity
4,QVQLVESGGGLVQAGGSLRLSCAASGFIIIGYFMGWYRQAPGKERELVAAITSSGGSTYYADSVKGRFTISRDNAKNTVYLQMNSLKPEDTAVYYCAARLYNSIYWGYYSWGPGTQVTVSS,low polyreactivity
5,QVQLVESGGGLVQAGGSLRLSCAASGFIIKFYAMGWYRQAPGKERELVATITISSGTTYYADSVKGRFTISRDTAKNTVYLQMNSLKPEDTAVYYCAASTLPAWPYDGPAGPRYDYWGQGTQVTVSS,low polyreactivity
6,QVQLVESGGGLVQAGGSLRLSCAASGFIIQGNAMGRYRQAPGKERELVAAISSSVSTYYADSVKGRFTISRDNAKNTVYLQMNSLKPEDTAVYYCNAGFPLSLWLGDYWGQGTQVTVSS,low polyreactivity
7,QVQLVESGGGLVQAGGSLRLSCAASGFIIQYYAMGWYRQAPGKERELVAVISLSGGRTSYADSVKGRFTISRDNAKNTVYLQMNSLKPEDTAVYYCARRVWSASNDYWGQGTQVTVSS,high polyreactivity
8,QVQLVESGGGLVQAGGSLRLSCAASGFIIYFNAMGWYRQAPGKERELVAAISASGGRTYYADSVKGRFTISRDNAKNTVYLQMNSLKPEDTAVYYCAADIRGYDYWGQGTQVTVSS,high polyreactivity
9,QVQLVESGGGLVQAGGSLRLSCAASGFIIYRYAMGWYRQAPGKEREVVATISSRGGSTYYADSVKGRFTISRDNAKNTVYLQMNSLKPEDTAVYYCNVRTRVKTTQSYDRNNYYWGQGTQVTVSS,high polyreactivity
10,QVQLVESGGGLVQAGGSLRLSCAASGFIIYSYAMGWYRQAPGKERELVAVISSRGGTTYYADSVKGRFTISRDNAKNTVYLQMNSLKPEDTAVYYCARDDYGTLVKLYVRCFNYWGQGTQVTVSS,low polyreactivity
11,QVQLVESGGGLVQAGGSLRLSCAASGFILAGYAMGWSRQAPGKERELVAAINSRGTRTYYADSVKGRFTISRDNAKNTVYLQMNSLKPEDTAVYYCAVHVWGTYGSWEYYYWGQGTQVTVSS,high polyreactivity
12,QVQLVESGGGLVQAGGSLRLSCAASGFILAGYAMGWYRQAPGKERELVAAINSRGTRTYYADSVKGRFTISRDNAKNTVYLQMNSLKPEDTAVYYCAVHVWGTYGSWEYYYWGQGTQVTVSS,high polyreactivity
13,QVQLVESGGGLVQAGGSLRLSCAASGFILDNYAMGWYRQAPGKERELVAAISGSGGSTYYADSVKGRFTISRDNAKNTVYLQMNSLKPEDTAVYYCAAYSIHYGYDAYDYWGQGTQVTVSS,high polyreactivity
14,QVQLVESGGGLVQAGGSLRLSCAASGFILDWYTMGWYRHAPGKEREFVAAITSRGGDTYYADSVKGRFTISRDNAKNTVYLQMNSLTPEDTAVYYCNKGFKLWPRYGYDYWGQGTQVTVSS,low polyreactivity
15,QVQLVESGGGLVQAGGSLRLSCAASGFILDYNTMGWYRQAPGKERELVAAISSSGDTTYYADSVKGRFTISRDNAKNTVYLQMNSLKPEDTAVYYCDREYGDGYEYWGQGTQVTVSS,low polyreactivity
16,QVQLVESGGGLVQAGGSLRLSCAASGFILGANAMGWYRQAPGKERELVAAIRSSDGTTYYADSVKGRFTISRDNAKNTVYLQMNSLKPEDTAVYYCAADWRLLYEYWGQGTQVTVSS,high polyreactivity
17,QVQLVESGGGLVQAGGSLRLSCAASGFILKPNAMGWYRQAPGKERELVAAISWSSGSTYYADSVKGRFTISRDNAKNTVYLQMNRLKPEDTAVYYCAADYFVYPDDWYDYWGQGTQVTVSS,low polyreactivity
18,QVQLVESGGGLVQAGGSLRLSCAASGFILKYYAMGWYRQAPGKERELVAAISSSGGRTYYADSVKGRFTISRDNAKNTVYLQMNSLKPEDTAVYYCAARVIASRGRYGYWGQGTQVTVSS,high polyreactivity
19,QVQLVESGGGLVQAGGSLRLSCAASGFILLYYAMGWYRQAPVKERELVATITWSDGSTYYADSVKGRFTISRDNAKNTVYLQMNSLKPEDTAVYYCASPYKRYFYKGGDYWGQGTQVTVSS,low polyreactivity
20,QVQLVESGGGLVQAGGSLRLSCAASGFILNWYAMGWYRQAPGKERELVAAISWTTSDTYYADSVKGRFTISRDNAKNTVYLQMNSLKPEDTAVYYCNAKFYAYYVTFVLHYDYWGQGTQVTVSS,low polyreactivity
21,QVQLVESGGGLVQAGGSLRLSCAASGFILPIYAMGWYRQAPGKEREFVAAITWTGGSTYYADSVKGRFTISRDTAKNNVFLQIHSLKPEDTAVYYCAKRYYLRGYGRYYYWGQGTQVTVSS,high polyreactivity

row,Sequence,polyreactivity (PSR sort gate)
1,QVQLVESGGGLVQAGGSLRLSCAASGFILRYNAMGWYRQAPGKERELVAAISYTGDRTYYADSVKGRFTISRDNAKNTVYLQMNSLKPEDTAVYYCNAVTYGSYYYWGQGTQVTVSS,high polyreactivity
2,QVQLVESGGGLVQAGGSLRLSCAASGFILSRYAMGWYRPAPGTERELVAAITSSGGSTYYADSVKGRFTISRDNAKNTVYLQMNSLKPEDTAVYYCAADRGRYSYNFWGQGTQVTVSS,high polyreactivity
3,QVQLVESGGGLVQAGGSLRLSCAASGFILTSNAMGWYRQAPGKERELVAAITRNGARTYYADSVKGRFTISRDNAKNTVYLQMNSLKPEDTAVYYCAAETVSYWWWGQDIPYYYWGQGTQVTVSS,high polyreactivity
4,QVQLVESGGGLVQAGGSLRLSCAASGFILTSYAMGWYRPEPGKERELVAAISSRGGRTYYADSVKGRFTISRDNAKNTVYLQMNSLKPEDTAVYYCNAVVYVVGDFDYWGQGTQVTVSS,high polyreactivity
5,QVQLVESGGGLVQAGGSLRLSCAASGFILTSYAMGWYRQAPGKERELVAAISSRGGRTYYADSVKGRFTISRDNAKNTVYLQMNSLKPEDTAVYFCNAVVYVVGDFDYWGQGTQVTVSS,high polyreactivity
6,QVQLVESGGGLVQAGGSLRLSCAASGFILVFYAMGWYRQAPGKERELVAAIDWSGTITYYADSVKGRFTISRDNAKKTVYLQINSLKPEDTAVYYCAADGEPFYDFDYWGQRTQVTVSS,high polyreactivity
7,QVQLVESGGGLVQAGGSLRLSCAASGFILYQNALGWYRQAPGKERELVAAITESDGITYYADSVKGRFTISRDNAKNTVYLQMNSLKPEDTAVYDCNTGFSYTYDYWGQGTQVTVSS,low polyreactivity
8,QVQLVESGGGLVQAGGSLRLSCAASGFILYRYAMGWDRQAPGKDRELVAAITRRGGSTYYADSVKGRFTISRDNAKNTVYLQMNSLKPEDTAVYYCNADIGVYGTSDLDYWGQGTQVTLSS,high polyreactivity
9,QVQLVESGGGLVQAGGSLRLSCAASGFISDDYAMGWYRQAPGKERELVAAISDSGVDTYYADSVKGRFTISRDNAKNTVYLLMNSLKPEDTAVYYCATLTYASNRYGYWGQGTHVTVSS,low polyreactivity
10,QVQLVESGGGLVQAGGSLRLSCAASGFISDWYAMGWYRQAPGTERELVATIDWIGGSTYADSVKGRFTISRDNAKNTVYLQMNSLKPEDTAVYYCAADSYFIAWYGAHYAYDYWGQGTQVTVSS,low polyreactivity
11,QVQLVESGGGLVQAGGSLRLSCAASGFISFDKAMGWYRQAPGKERELVAAIRSGGSTNYADSVKGLFTISRDNAKNTVYLQMNSLKPEDTAVYYCATDGSLRARSTSGWEYTNGDYWGQGTQVTVSS,low polyreactivity
12,QVQLVESGGGLVQAGGSLRLSCAASGFISPGYAMGWYRQAPGKERELVAAISVNGGDTYYADSVKGRFTISRDNAKNTVYLQMYSLKPEDTAVYYCAAERGVDDSARYGDYDYWGQGTQVTVSS,low polyreactivity
13,QVQLVESGGGLVQAGGSLRLSCAASGFISYYYAMGWYRQAPGKEREFVAAITSSGGSTRYADSVKGRFSISRDNATNTVYLQMNSLKPEDTAVYYCAAGNPYFWPYDYWGQGTQVTVSS,low polyreactivity
14,QVQLVESGGGLVQAGGSLRLSCAASGFIVTPYTMGWYRQAAGKERELVAAITDGSSTYYADSVKGRFTISRDNAKNTDYLQMNSLKPEETAVYYFNADGKPPYISWLYDYWGHGTQVTVSS,low polyreactivity
15,QVQLVESGGGLVQAGGSLRLSCAASGFIYFGNAMGWYRQAPGKERELVAAINSNGSSTYYADSVKGRFTISRDNAKNTVYFLMNSLQPEDTAVYYCAKKISVHEGAWPSNPDGDYWGQGTQVTVSS,low polyreactivity
16,QVQLVESGGGLVQAGGSLRLSCAASGFIYKYAMGWYRPAPGKERELVAAISQNGGSTRYADSVKGRFTISRDNAKNTVYLQMNSLKPEDTAVYYCNTGVARGYKYWGQGTQVTVSS,high polyreactivity
17,QVQLVESGGGLVQAGGSLRLSCAASGFIYNTKGWYRQAPGKERELVAAISRSGGSTDYADSVKGRFTISRDNAKNTVYLQMTSLKPEDTAVYYCAARRPYRDGYDYWGQGTQVTVSS,high polyreactivity
18,QVQLVESGGGLVQAGGSLRLSCAASGFIYPRNTMGWYRQAPGKERELVAAITWIGGRTYYADSVKGRFTISRDNAKNTVYLQMNSLKPEDTAVYYCAADYSVFYDEDYWGQGTQVTVSS,low polyreactivity
19,QVQLVESGGGLVQAGGSLRLSCAASGFIYRLNAMGWYRQAPGKERELVAAISTYADSVKGRFTFSRDNAKTTVYLQMNSLKPEDTAVYYCAKDYTDSYAYRTGFDYWGQGTQVTVSS,low polyreactivity
20,QVQLVESGGGLVQAGGSLRLSCAASGFIYRVYGMGWYRQAPVKERELLAAISGRGGSTYYADSVKGRFTISRDNANNTVYLQMHSLKPEDTAVYYCYTLDIRTYSKYDYWGQGTQVTVSS,high polyreactivity
